Source: US20170369592A1, “NOVEL ANTI-FIBROBLAST ACTIVATION PROTEIN (FAP) ANTIBODIES AND USES DERIVED THEREOF” (Mabimmune Diagnostics AG, priority 2015, published 2017)

Assays:
[1] = system: multiple myeloma cells and tumor stroma in the syngeneic MOPC315.BM mouse model; test: Immunofluorescence on murine multiple myeloma tissues; conditions: Cy5 labelled antibody, MOPC315.BM BALB/c mice
Description: BALB/c mice were injected with 2×10^6 of the murine multiple myeloma cell line […] intravenously. BALB/c mice were injected with a vehicle-only control. Bone tissue was harvested and fixed in 4% PFA, decalcified in 10% EDTA (pH 7.4), embedded in paraffin before being sectioned (4 μm) and rehydrated. Then, CD138 mAb (Clone 281-2, BD Pharmingen) and Cy5 labelled NI-206.82C2 were used to identify MOPC315.BM.Luc cell infiltration, and NI-206.82C2 binding to these cells and surrounding stromal cells in the tissue sections. Stained tissue sections were then imaged using a fluorescent microscope (FIG. 13).

[2] = system: obstructive human coronary thrombi and aortic atherosclerotic plaque; test: Confocal immunofluorescence on coronary thrombi and atherosclerotic plaque; conditions: Cyanine 3 labelled antibody
Description: NI-206.82C2 was labelled with Cyanine 3 for fluorescent imaging (Cy3 conjugation kit: Innova Biosciences, 340-0030) and antibody labelling was validated using a spectophotometer. Cryosections from myocardial infarction causing obstructive human coronary thrombi (FIG. 14, A) and human aortic atherosclerotic plaque (FIG. 14, B) were fixed for 5 minutes in ice cold acetone and allowed to dry for 10 minutes before washing in PBS. The sections were then incubated for 1 hr at room temperature in 5% BSA in PBS, and then incubated with Cyanine 3 labelled antibodies overnight at 4° C., before washing three times in PBS before incubation with DAPI at 0.5 μg/mL. Sections were then washed three additional times in PBS and mounted in Lisbeth's mounting medium before imaging on a SP8 confocal microscope (Leica Microsystems).

[3] = target: directly coated FAP peptides mixture (cFAP); test: Direct ELISA, mixture of FAP-specific peptides directly coated; assay type: binding, human; conditions: non-linear regression
Description: ELISA assays were performed with varying antibody concentrations to validate the binding of the exemplary antibodies of the present invention to FAP and to be able to determine their half maximal effective concentration (EC50). For the exemplary recombinant human NI-206.82C2, NI-206.59B4, NI-206.22F7, NI-206.27E8, NI-206.12G4 and NI-206.17A6 antibodies, 96-well microplates (Costar, Corning, USA) were coated with FAP, with a mixture of the 3 peptides or with BSA (Sigma-Aldrich, Buchs, Switzerland) diluted to a concentration of 5 μg/ml in carbonate ELISA coating buffer (15 mM Na2CO3, 35 mM NaHCO3, pH 9.4) for the direct ELISA. For the capture ELISA, the microplates were coated with mouse anti-His monoclonal antibody (Clontech) diluted to a concentration of 3 μg/ml in PBS, the plates were then blocked, FAP or BSA were diluted to a concentration of 2 μg/ml in PBS and added to the plates to be captured. The binding efficiency of the antibodies was then tested. The exemplary NI-206.82C2 antibody specifically and strongly binds to the captured FAP and less efficiently to the directly coated FAP. The exemplary NI-206.59B4 antibody specifically, strongly and similarly binds to the captured FAP and to the directly coated FAP.
The EC50 values were estimated by a non-linear regression using GraphPad Prism (San Diego, USA) software. […] The binding of NI-206.12G4 towards sFAP was not tested.

[4] = system: human invasive ductal carcinoma and invasive lobular carcinoma sections; test: Confocal immunofluorescence on human carcinoma cryosections; conditions: Cyanine 3 labelled antibody
Description: NI-206.82C2 was labelled with Cyanine 3 for fluorescent imaging (Cy3 conjugation kit: Innova Biosciences, 340-0030) and antibody labelling was validated using a spectophotometer. Cryosections from human invasive ductal carcinoma tissues (FIG. 9, A) and invasive lobular carcinoma (FIG. 9, B) were fixed for 5 minutes in ice cold acetone and allowed to dry for 10 minutes before washing in PBS. The sections were then incubated for 1 hr at room temperature in 5% BSA in PBS. The tissue sections were then incubated with Cyanine 3 prelabelled antibodies overnight at 4° C., and then washed three times in PBS before incubation with DAPI at 0.5 μg/mL. Sections were then washed three additional times in PBS and mounted in Lisbeth's mounting medium before imaging on a SP8 confocal microscope (Leica Microsystems).

B1: NI-206.82C2: recombinant human memory B cell-derived monoclonal anti-FAP IgG1 antibody, variable regions in FIG. 1A, FAP inhibitory (antibody, V domains shown)
VH: QVQLQQSGPGLVKPSQTLSLTCAISGDSVSSNSVTWNWIRQSPSRGLEWLGRTYYRSKWYNDYAVSVKGRITINPDTSKNQFYLQLKSVTPEDAAVYYCARDSSILYGDYWGQGTLVTVSS
VL: QAVLTQPSSLSASPGASASLTCTLPSGINVGTYRIFWFQQKPGSPPQYLLSYKSDSDNHQGSGVPSRFSGSKDASANAGILLISGLQSEDEADYYCMIWHSSAWVFGGGTKLTVL
- binding to multiple myeloma cells and tumor stroma [1]: binds
- binding to obstructive human coronary thrombi and aortic atherosclerotic plaque [2]: binds
- EC50, binding to directly coated FAP peptides mixture (cFAP) [3]: did not show any binding
- binding to human invasive ductal carcinoma and invasive lobular carcinoma sections [4]: specifically binds
